In one series the target is T1, Aga-BC7050 (Heyndrickxia coagulans, UniProt A0A8B4BWV9).
T1 construct: GH36 homodimer, 168 kDa by gel filtration; predicted nucleophile Asp477, acid/base Asp547
T1 sequence (A0A8B4BWV9 1-730): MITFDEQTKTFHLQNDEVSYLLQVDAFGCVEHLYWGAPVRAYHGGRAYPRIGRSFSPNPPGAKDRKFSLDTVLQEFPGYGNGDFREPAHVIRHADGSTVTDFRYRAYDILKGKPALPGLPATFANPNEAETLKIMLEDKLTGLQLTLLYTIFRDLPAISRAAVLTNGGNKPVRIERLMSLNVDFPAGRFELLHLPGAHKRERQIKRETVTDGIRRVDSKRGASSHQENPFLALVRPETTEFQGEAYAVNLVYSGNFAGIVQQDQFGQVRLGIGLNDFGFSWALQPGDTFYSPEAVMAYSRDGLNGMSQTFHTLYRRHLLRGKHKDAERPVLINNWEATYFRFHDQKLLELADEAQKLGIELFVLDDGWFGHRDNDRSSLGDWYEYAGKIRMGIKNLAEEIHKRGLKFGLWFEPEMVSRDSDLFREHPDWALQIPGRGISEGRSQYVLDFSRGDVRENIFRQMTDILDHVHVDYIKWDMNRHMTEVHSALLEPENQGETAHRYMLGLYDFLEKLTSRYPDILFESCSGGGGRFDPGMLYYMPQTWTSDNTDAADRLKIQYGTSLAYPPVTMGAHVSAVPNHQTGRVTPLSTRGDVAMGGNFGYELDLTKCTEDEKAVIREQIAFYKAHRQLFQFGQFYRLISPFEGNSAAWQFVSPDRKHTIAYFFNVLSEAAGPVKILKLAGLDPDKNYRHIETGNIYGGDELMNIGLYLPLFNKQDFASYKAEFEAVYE
Description: pNPGal hydrolysis with added sugar. Format: biochemical. To be noted: substrate pNPGal; McIlvaine buffer; galactose is also the reaction product.

Series [1] deals with α-galactosidase Aga-BC7050 from Bacillus coagulans ATCC 7050 (Bacillus coagulans ATCC 7050). The series is described as follows: SEC; analytical gel filtration, Superdex 200 Increase 10/300 GL, 10 mM phosphate buffer, 0.14 M NaCl, pH 7.4, 0.75 mL/min, room temperature; calibrated with albumin, lactate dehydrogenase, catalase, ferritin, thyroglobulin; native mass compared with SDS-PAGE mass. Background: In gel filtration, larger molecules generally elute earlier.

Substrate in series [2]: O=[N+]([O-])c1ccc(O[C@H]2O[C@H](CO)[C@H](O)[C@H](O)[C@H]2O)cc1
The series is described as follows: purified protein. It is filed as biochemical, Heyndrickxia coagulans. To be noted: McIlvaine buffer pH 6.0, 55 °C.

Substrate in series [3]: OC[C@H]1O[C@H](OC[C@H]2O[C@H](O[C@]3(CO)O[C@H](CO)[C@@H](O)[C@@H]3O)[C@H](O)[C@@H](O)[C@@H]2O)[C@H](O)[C@@H](O)[C@H]1O
Description: purified protein. It is filed as biochemical, Heyndrickxia coagulans. To be noted: McIlvaine buffer pH 6.0, 55 °C.

One may read the stoichiometry N as a count of units in the complex or per binding partner. By Km is commonly meant the substrate concentration at which the rate is half of its maximum. In general, Vmax refers to the top rate of the reaction or transport when substrate is in excess. What is called kcat is the number of substrate molecules converted per active site and unit of time at saturation. The term kcat/Km denotes the second-order rate constant that governs catalysis at low substrate concentration.

As for `OC[C@H]1OC(O)[C@H](O)[C@@H](O)[C@H]1O` (stereo partly shown) [galactose], the “% decrease of activity at 100 mM” value at Aga-BC7050 is 24.4%.
The molecule “α-galactosidase Aga-BC7050 from Bacillus coagulans ATCC 7050 (enzyme)” came in with a stoichiometry N in series [1] of 2.

B1: Aga-BC7050 (Heyndrickxia coagulans DSM 1 = ATCC 7050) (protein)
chain: T1 sequence (A0A8B4BWV9 1-730)
notes: GH36 homodimer, 168 kDa by gel filtration; predicted nucleophile Asp477, acid/base Asp547
B1: in the series “purified protein [2]”, the Michaelis constant (Km) is given as 1.1 ± 0.2 mM, the maximal velocity (Vmax) is 655 µmol/min/mg, the kcat stood at 942 ± 73.9 s⁻¹ and the kcat/Km stood at 844000 M⁻¹ s⁻¹. In addition, in “purified protein [3]”, the Km came to 53.7 ± 0.9 mM, the Vmax amounted to 1140 µmol/min/mg, the kcat was determined as 1610 ± 53.4 s⁻¹ and the kcat/Km was determined as 30500 M⁻¹ s⁻¹.

These data come from paper PMC5940202, “A novel α-galactosidase from the thermophilic probiotic Bacillus coagulans with remarkable protease-resistance and high hydrolytic activity” (PLoS ONE, 2018).
